The data set concerns the molecule itself. In words: SDS-PAGE under non-reducing conditions; 12.5% acrylamide/bis gel, reduced and non-reduced conditions, Coomassie blue R-250; a second band of >100 kDa only under non-reduced conditions.

These results are taken from article PMC3020801, “A new lysozyme from the eastern oyster, Crassostrea virginica, and a possible evolutionary pathway for i-type lysozymes in bivalves from host defense to digestion” (BMC Evolutionary Biology, 2010).

B1: cv-lysozyme 3 (enzyme, Crassostrea virginica)
chain: SDAPCTNSGGVCQDDHLACHNGHYQSGLCTGGAHRRCCLTSASHTGSFSTGIVSQQCLQCICNVESGCKAIGCHFDVNSDSCGYFQIKEGYWHDCGSPGSSWRSCANDLACASKCVQAYMSRYIGFSGCSHSCESYARIHNGGPAGCKHTNTLGYWSHVHAQGCSHNS
notes: cv-lysozyme 3, Crassostrea virginica, tryptic peptide 1-35 of the purified protein; numbers count on: the mature protein; cv-lysozyme 3, tryptic peptide 37-69; cv-lysozyme 3, tryptic peptide 70-88; cv-lysozyme 3, tryptic peptide 89-103; cv-lysozyme 3, tryptic peptide 104-114; cv-lysozyme 3, tryptic peptide 115-122; cv-lysozyme 3, tryptic peptide 123-138; cv-lysozyme 3, tryptic peptide 139-148; …
Turning to B1, the binding result is “binds”.
